Assay results reported in the supplement of paper PMC9170038.

Assays:
[1] = system: K4 kissing-loop RNA reporter; assay: apparent KD of K4 kissing-loop reporter; higher = weaker reporter binding; details: Eterna round: R107;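 further: bound reporter read as fluorescence of individual clusters on recovered sequencing chips by microscopy, with normalized cluster intensities fitted with a binding model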
Description: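 RNA-MaP round R107: designed RNA switches with theophylline, tryptophan, arginine or FMN aptamers are transcribed on-chip within common flanks. They are titrated with a labelled K4 kissing-loop RNA reporter in RNA-MaP buffer (100 mM Tris pH 7.5, 80 mM KCl, 4 mM MgCl2), without ligand or with the indicated ligand. Median apparent KD per design.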

[2] = system: MS2 coat protein; assay: apparent KD of MS2 coat protein; designed switch direction (-1 OFF switch, 1 ON switch): -1; higher = weaker reporter binding
Summary of the method: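 Each step of the titration lasted 0.8–1.5 h at the lowest concentration and 10–20 min at the highest. The protein, SNAP-549-labelled MS2 coat protein, went from 0.7 or 1.5 nM doubling to 3 µM over RNA switches transcribed on Illumina chips by stalled E. coli RNA polymerase. Normalised cluster fluorescence was curve-fitted, and the per-design median over clusters is given as apparent KD.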

[3] = input ligand: theophylline 20 uM
[4] = input ligand: tryptophan 2.4 mM
[5] = input ligand: microRNA oligo, concentration not stated

Sequence | apparent KD of K4 kissing-loop reporter ([1]; input ligand: FMN 200 uM) | apparent KD of K4 kissing-loop reporter ([1]; input ligand: arginine 13.2 mM) | apparent KD of K4 kissing-loop reporter ([1]; input ligand: none) | apparent KD of K4 kissing-loop reporter [1, 3] | apparent KD of K4 kissing-loop reporter [1, 4] | apparent KD of MS2 coat protein ([2]; input ligand: FMN 200 uM) | apparent KD of MS2 coat protein ([2]; input ligand: none) | apparent KD of MS2 coat protein [2, 5]
UAAGAAUAAGUAGCAGUGAUGUUGCUACUACGAGGACCGGUACGGCCGCCACUCGAAUACGAGUGGAAGUAGCAACUACCACUCA [(H1)-(H2)-(Trp1)-(Trp2)-(T)'-(H)'-(T)''_Design7] | 114 nM | 96.2 nM | 125 nM | 88 nM | 135 nM |  |  | 
AGAGUUAUAUGAGGAUAUGGGAUAGUAACUGAGUGAGUUAUAGUGUAGUUUGUUUAGUGAUGUUAUUUAGAAGGCGUGAGUGAUG [wwwsemullin] | 162 nM | 121 nM | 147 nM | 182 nM | 107 nM |  |  | 
AGUGUUGUAUGACGGUUUGUCACUUAGGAUCAGGAUAUAUAAACAAAUAGAAGGGAUGGCGGAGUGAUGUUCCGCCGGCCGCCAU [FMN A Exl V9] | 110 nM | 101 nM | 104 nM | 106 nM | 94.3 nM |  |  | 
UUUGGUAUCUCGGCCGCCACUCGUGGGAAAUGGGCCUCAGGGAUAUAGUGAUGUUAUGUAAAGAAGAGGACCGGGAGAAGGAAGG [ExTryptoB.Dk] | 343 nM | 232 nM | 355 nM | 481 nM | 208 nM |  |  | 
GGUUUAUAGGAGGAUACCAGUACGAAUAAAGUACAUUAAUAGUAGAGUGAUGUUCUAAAGUACCCUUGGCAGCUUAGAUUAAGUU [ExTheophylB.H] | 102 nM | 180 nM | 116 nM | 166 nM | 77.9 nM |  |  | 
UGUACCGAGUCAGGAUAUGGCGUCGAAAGACGAAUGCUAGUGAUGUUAGGGAUCUGCGAAAGCAGUCUAGAAGGGACUUGGUACU [FmnBS 26 G36+U68] | 359 nM | 361 nM | 471 nM | 483 nM | 525 nM |  |  | 
CUCGAGUGAUGUUCGAUUAUGUAUACAGAUACCAGUGAAUUUUAACACCCUUGGCAGCUGGUAGAAUCAUUGUAAUUUUAACUAG [JR_ExcTheophyA_Sub001] | 175 nM | 260 nM | 218 nM | 254 nM | 150 nM |  |  | 
UGUCAUUGGUCGGCCGCCACUCCAUAAAGAGUGAUGUUCUGAAAGACGGAUCGAAAGAUCUGUCGGAGGACCGGGACCGAUGACU [FiskerMod 3 - Jieux - Same State - Tryptophan B] | 1310 nM | 665 nM | 1540 nM | 896 nM | 237 nM |  |  | 
AGUACGGACGCGGCCGCCACUCAGAAGAAGACGGUAGUGAUGUUACUGAUGGUGAGAACAAUAAAGAGGACCGGGUGUCGUGCAA [#06 K4 Tryptophan B Same State] | 324 nM | 464 nM | 523 nM | 370 nM | 304 nM |  |  | 
CGCGCGGGUUUGAGAGGGUUUGCGCGAAGUGAGGAUAUUUAGGGAGAAAGAAGGCACUAUAAAAUAUAGUGAUGUUAUAUAAGGG [SSFMNA.I] | 627 nM | 117 nM | 251 nM | 139 nM | 269 nM |  |  | 
UGAUUUAACUGAAGGAGCGGCAAGAGAGAAGGAAAUAUAGUGAUGUUAUAUAAGAGAGAGAGCCAGGUAGGUCGCAGAGGGAGGA [ExArgB.E] | 126 nM | 126 nM | 173 nM | 178 nM | 137 nM |  |  | 
AAAUUUAAUAUAUUUAAUUAAUUAUGUGAUACCAGACAUUAAUAAGUCCCUUGGCAGCACAAUGCAGUGAUGUUGCUUAUAAUAA [JR_SSTheophyA_Sub010] | 85.7 nM | 117 nM | 86.9 nM | 138 nM | 70.3 nM |  |  | 
CGUUGUGAUGCUUGUGCUCAUACCGGAGAUACCAGUACCAUCACUUACCCUUGGCAGCUCAGUAAAGACAAGUGAUGUUUGUCAC [theeternabot_sameState_KL_Theo_A_38] | 684 nM | 528 nM | 805 nM | 560 nM | 502 nM |  |  | 
GCAGGAUAGCGCGGUGCAGUGAUGUUGCACCGAGGACCGGUACGGCCGCCACUCGCUUAGAUAUCGUGUGAUGGGUAUGUCUAGA [theeternabot_exclusion_KL_Trp_A_8] | 116 nM | 110 nM | 123 nM | 94 nM | 119 nM |  |  | 
AGAACUGUCUUGGAUACCAGUGAUGUUGGUAUCGAUGUGUGAGUGCAAAGCGUCCCACAUCGCCCUUGGCAGCUAAGACUGUUCA [Omei KL Theo B Exc A v4] | 287 nM | 238 nM | 302 nM | 349 nM | 257 nM |  |  | 
UGCACGGGCUCGGCCGCCACUCCCGCGGGUCGAAAGGUCCGCUACUGAGUGAUGUUCGGUUGGAGGAGGACCGGGAGCCCGUGCA [#2 Exclusion - Tryptophan B Attempt #24 (HarryS)] | 95.6 nM | 92.9 nM | 108 nM | 69.7 nM | 69.2 nM |  |  | 
AAUUACCUAGUGAUGUUGGGAAUAAUAUAACGAGGACCGGUACGGCCGCCACUCGAGGUCCUAAUUAAGAACGCGAAAGCGAAGA [Tryptophan A Exclusion; Euphoria Solution] | 94.4 nM | 60.5 nM | 93.1 nM | 66.8 nM | 189 nM |  |  | 
CACGUGAGAGGAUAUACAUGAGGAUCACCCAUGUAUACAGCAGGGUAUGAAGACUUGGGUAGAAGGCUCGCGUG [Eternabot (L2) Solution 39] (Eterna round: R97, puzzle: Exclusion 3) |  |  |  |  |  | 173 nM | 270 nM | 
ACAUGAGGAUCACCCAUGUAAUCAUGAUGGCUGAUGUAGAGCUAGGAUAUGAGUGGCUUUCUAUCUCAGAAGGAGCAAGACUGG [Deportation 40 - Jieux - Exclusion NG 3] (Eterna round: R96, puzzle: Exclusion NG 3) |  |  |  |  |  | 44.1 nM | 36.8 nM | 31.6 nM
AAAAAGCUGAGAGGAUAUGGUGCCGAAACGGUGCUAGAAGGCUUUGCAAAAAAACAUGAGGAUCACCCAUGUUCAUGUAGAGAA [AK ExNG1-1.2] (Eterna round: R96, puzzle: Exclusion NG 1) |  |  |  |  |  | 15.8 nM | 19.6 nM | 11.8 nM
